In assay [1] the target is T1, RGL2 (Arabidopsis DELLA protein), yeast two-hybrid prey in pGADT7 AD vector (Arabidopsis, UniProt Q8GXW1 1-547).
T1 construct: also called AtDELLA
T1 sequence (looked up): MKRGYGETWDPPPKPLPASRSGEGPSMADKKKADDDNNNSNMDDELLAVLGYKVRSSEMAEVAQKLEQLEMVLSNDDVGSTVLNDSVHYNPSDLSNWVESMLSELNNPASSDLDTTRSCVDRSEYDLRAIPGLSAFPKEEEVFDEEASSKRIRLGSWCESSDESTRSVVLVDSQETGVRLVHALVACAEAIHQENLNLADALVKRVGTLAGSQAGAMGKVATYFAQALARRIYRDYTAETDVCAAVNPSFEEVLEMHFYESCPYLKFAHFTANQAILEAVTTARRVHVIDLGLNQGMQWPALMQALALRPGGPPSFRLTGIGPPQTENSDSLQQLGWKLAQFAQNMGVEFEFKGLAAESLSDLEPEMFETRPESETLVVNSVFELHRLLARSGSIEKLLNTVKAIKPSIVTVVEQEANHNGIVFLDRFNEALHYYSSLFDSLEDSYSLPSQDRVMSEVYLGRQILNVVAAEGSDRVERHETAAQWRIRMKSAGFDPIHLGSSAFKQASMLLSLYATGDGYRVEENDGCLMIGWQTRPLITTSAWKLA
Nature of the assay: yeast two-hybrid system. The method, then: (§1) Arabidopsis has five DELLA proteins (RGA, GAI, RGL1, RGL2, and RGL3; collectively designated AtDELLA; Fleet, C. M., and Sun, T.-P. (2005) Curr. Opin. Plant Biol., 8, 77-85; Dill, A., and Sun, T. (2001) Genetics, 159, 777-785); therefore, there are 15 possible combinations of GID1/DELLA proteins. To verify the positive interactions between AtGID1-AtDELLA, two experiments were conducted using the yeast two hybrid (Y2H) system. In the first experiment (Assay A), a viable colony assay using a defined medium in which only positive clones would survive was carried out. In the second experiment (Assay B), β-galactosidase activity was measured, as reporter gene product of AtGID1-AtDELLA interactions.
(§2) BD Matchmaker Two-hybrid System 3 (Clontech, Palo Alto, Calif., USA; now part of Takara Bio) was used in the Y2H experiments. After confirming the PCR products of the AtGID1 genes by sequencing, PCR products were cloned into pGBKT7 DNA-BD shuttle vector to construct bait plasmids. Likewise, the entire coding region of each AtDELLA gene (GAI including EcoRI and XhoI sites; RGA including BamHI and XhoI sites; RGL1 including SmaI and SacI sites; RGL2 including SmaI and ClaI sites; RGL3 including SmaI and XhoI sites on the ends) was cloned into pGADT7 AD vector. The S. cerevisiae AH109 (MATa) strain or Y187 (MATα) strain was used, and DNA-BD and AD vector cassettes were used as negative controls. The details of the method used for the yeast assay are as described in the manufacturer's instructions (Yeast Protocols Handbook #PT3024-1; http://www.clontech.com/). Experiments were carried out four times independently. Similar results were obtained each time.

Assay [2] deals with T2, RGL3 (Arabidopsis DELLA protein), yeast two-hybrid prey in pGADT7 AD vector (Arabidopsis, UniProt Q9LF53 1-523).
T2 construct: also called AtDELLA
T2 sequence (looked up): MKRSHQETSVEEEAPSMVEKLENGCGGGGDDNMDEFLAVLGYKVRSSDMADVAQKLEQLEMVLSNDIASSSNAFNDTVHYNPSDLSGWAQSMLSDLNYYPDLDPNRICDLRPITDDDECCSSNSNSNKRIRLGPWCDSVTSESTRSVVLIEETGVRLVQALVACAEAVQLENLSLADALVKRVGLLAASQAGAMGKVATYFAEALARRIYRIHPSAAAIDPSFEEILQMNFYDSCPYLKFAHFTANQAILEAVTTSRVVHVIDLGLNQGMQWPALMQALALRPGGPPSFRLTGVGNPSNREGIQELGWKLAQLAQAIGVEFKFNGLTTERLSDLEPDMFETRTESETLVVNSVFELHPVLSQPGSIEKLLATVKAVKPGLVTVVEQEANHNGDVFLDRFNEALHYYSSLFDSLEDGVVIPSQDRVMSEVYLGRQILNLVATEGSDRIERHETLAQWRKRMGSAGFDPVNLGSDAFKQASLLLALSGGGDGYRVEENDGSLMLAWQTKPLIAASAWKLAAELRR
In words: yeast two-hybrid system. As for the experimental part:
as §1, §2

Assay [3] deals with T3, RGL1 (Arabidopsis DELLA protein), yeast two-hybrid prey in pGADT7 AD vector (Arabidopsis, UniProt Q9C8Y3 1-511).
T3 construct: also called AtDELLA
T3 sequence (looked up): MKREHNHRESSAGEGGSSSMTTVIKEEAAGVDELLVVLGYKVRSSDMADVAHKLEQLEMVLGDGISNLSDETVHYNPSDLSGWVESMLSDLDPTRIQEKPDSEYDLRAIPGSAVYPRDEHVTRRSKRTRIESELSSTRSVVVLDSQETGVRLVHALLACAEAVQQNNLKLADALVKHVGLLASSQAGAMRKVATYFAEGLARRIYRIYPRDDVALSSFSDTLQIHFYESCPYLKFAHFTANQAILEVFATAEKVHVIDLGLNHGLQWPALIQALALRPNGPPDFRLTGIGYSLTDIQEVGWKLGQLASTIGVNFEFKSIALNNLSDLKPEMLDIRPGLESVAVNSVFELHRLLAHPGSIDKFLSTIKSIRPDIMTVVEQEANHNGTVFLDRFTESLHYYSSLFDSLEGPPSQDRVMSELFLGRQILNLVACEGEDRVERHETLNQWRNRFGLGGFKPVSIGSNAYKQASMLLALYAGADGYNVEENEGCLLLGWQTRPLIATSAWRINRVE
Nature of the assay: yeast two-hybrid system. As for the experimental part: as §1, §2

The target in assay [4] is T3, RGL1 (Arabidopsis DELLA protein), yeast …. In words: yeast two-hybrid without GA (FIG. 11); member RGL1 named in the legend of FIG. 11. The method, then: as §1
BD Matchmaker Two-hybrid System 3 (Clontech, Palo Alto, Calif., USA; now part of Takara Bio) was used in the Y2H experiments. After confirming the PCR products of the AtGID1 genes by sequencing, PCR products were cloned into pGBKT7 DNA-BD shuttle vector to construct bait plasmids. […]
Thus, GA₄ (10⁻⁵ M) was used and added to the medium. […] As described above, all AtGID1-AtDELLA interactions were detected in a GA-dependent manner; however, interactions between AtGID1b and some AtDELLAs were detected, albeit weakly, in the absence of GA (FIG. 11).

B1: AtGID1a (At3g05120), yeast two-hybrid bait in pGBKT7 DNA-BD vector (receptor, not shown: small tags and cut ends)
chain: MAASDEVNLIESRTVVPLNTWVLISNFKVAYNILRRPDGTFNRHLAEYLDRKVTANANPVDGVFSFDVLIDRRINLLSRVYRPAYADQEQPPSILDLEKPVDGDIVPVILFFHGGSFAHSSANSAIYDTLCRRLVGLCKCVVVSVNYRRAPENPYPCAYDDGWIALNWVNSRSWLKSKKDSKVHIFLAGDSSGGNIAHNVALRAGESGIDVLGNILLNPMFGGNERTESEKSLDGKYFVTVRDRDWYWKAFLPEGEDREHPACNPFSPRGKSLEGVSFPKSLVVVAGLDLIRDWQLAYAEGLKKAGQEVKLMHLEKATVGFYLLPNNNHFHNVMDEISAFVNAEC
notes: Bait fusion for the Y2H assays (BD Matchmaker Two-hybrid System 3); also called Arabidopsis GID1
Turning to B1, the binding result in assay [1], in assay [2] and in assay [3] was “binds” throughout.

B2: AtGID1b (At3g63010), yeast two-hybrid bait in pGBKT7 DNA-BD vector (receptor, not shown: small tags and cut ends)
chain: MAGGNEVNLNECKRIVPLNTWVLISNFKLAYKVLRRPDGSFNRDLAEFLDRKVPANSFPLDGVFSFDHVDSTTNLLTRIYQPASLLHQTRHGTLELTKPLSTTEIVPVLIFFHGGSFTHSSANSAIYDTFCRRLVTICGVVVVSVDYRRSPEHRYPCAYDDGWNALNWVKSRVWLQSGKDSNVYVYLAGDSSGGNIAHNVAVRATNEGVKVLGNILLHPMFGGQERTQSEKTLDGKYFVTIQDRDWYWRAYLPEGEDRDHPACNPFGPRGQSLKGVNFPKSLVVVAGLDLVQDWQLAYVDGLKKTGLEVNLLYLKQATIGFYFLPNNDHFHCLMEELNKFVHSIEDSQSKSSPVLLTP
notes: Bait fusion for the Y2H assays; also called Arabidopsis GID1
Take B2: the binding result in assay [4] and in assay [1] was “binds” in each case.

These data come from patent US20090031441A1 (NATIONAL UNIVERSITY CORPORATION NAGOYA UNIVERSITY, published 2009).
